Legend:
Assay in all cases: BioID-MS +ONC201
PAM16 (human) = PAM16 (human) (UniProt Q9Y3D7)
NDUFV2 (human) = NDUFV2 (human) (UniProt P19404)
LARS2 (human) = LARS2 (human) (UniProt Q15031)
CDK5RAP1 (human) = CDK5RAP1 (human) (UniProt Q96SZ6)
SLIRP (human) = SLIRP (human) (UniProt Q9GZT3)
IDI1 (human) = IDI1 (human) (UniProt Q13907)
LETM1 (human) = LETM1 (human) (UniProt O95202)
MRPL55 (human) = MRPL55 (human) (UniProt Q7Z7F7)
MRPL45 (human) = MRPL45 (human) (UniProt Q9BRJ2)
WARS2 (human) = WARS2 (human) (UniProt Q9UGM6)
NDUFA12 (human) = NDUFA12 (human) (UniProt Q9UI09)
Sequence of NDUFA12 (human) (Q9UI09 whole entry): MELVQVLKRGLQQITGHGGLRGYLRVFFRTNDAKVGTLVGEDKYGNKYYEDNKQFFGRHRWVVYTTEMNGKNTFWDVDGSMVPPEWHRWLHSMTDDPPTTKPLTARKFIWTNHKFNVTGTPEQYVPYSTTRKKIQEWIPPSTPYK

MRPL47 (human) = MRPL47 (human) (UniProt Q9HD33)
ABCB10 (human) = ABCB10 (human) (UniProt Q9NRK6)
NMNAT3 (human) = NMNAT3 (human) (UniProt Q96T66)
ZADH2 (human) = ZADH2 (human) (UniProt Q8N4Q0)
ARG2 (human) = ARG2 (human) (UniProt P78540)
PNPT1 (human) = PNPT1 (human) (UniProt Q8TCS8)
MRPS26 (human) = MRPS26 (human) (UniProt Q9BYN8)
MRM3 (human) = MRM3 (human) (UniProt Q9HC36)
HSPE1 (human) = HSPE1 (human) (UniProt P61604)
SHMT2 (human) = SHMT2 (human) (UniProt P34897)
CLIC4 (human) = CLIC4 (human) (UniProt Q9Y696)
NDUFS6 (human) = NDUFS6 (human) (UniProt O75380)
XPNPEP3 (human) = XPNPEP3 (human) (UniProt Q9NQH7)
CPOX (human) = CPOX (human) (UniProt P36551)
Sequence of CPOX (human) (P36551 111-454 limits assumed): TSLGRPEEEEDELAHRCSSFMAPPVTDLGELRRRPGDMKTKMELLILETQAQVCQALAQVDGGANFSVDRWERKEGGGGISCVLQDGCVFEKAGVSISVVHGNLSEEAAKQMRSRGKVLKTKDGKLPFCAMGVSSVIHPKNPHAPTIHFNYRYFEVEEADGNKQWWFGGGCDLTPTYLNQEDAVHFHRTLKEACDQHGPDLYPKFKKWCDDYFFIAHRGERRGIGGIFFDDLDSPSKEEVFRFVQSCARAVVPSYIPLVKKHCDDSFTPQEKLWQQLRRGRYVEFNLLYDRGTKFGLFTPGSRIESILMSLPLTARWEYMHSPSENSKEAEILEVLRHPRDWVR

BCS1L (human) = BCS1L (human) (UniProt Q9Y276)
Sequence of BCS1L (human) (Q9Y276 2-419 limits assumed): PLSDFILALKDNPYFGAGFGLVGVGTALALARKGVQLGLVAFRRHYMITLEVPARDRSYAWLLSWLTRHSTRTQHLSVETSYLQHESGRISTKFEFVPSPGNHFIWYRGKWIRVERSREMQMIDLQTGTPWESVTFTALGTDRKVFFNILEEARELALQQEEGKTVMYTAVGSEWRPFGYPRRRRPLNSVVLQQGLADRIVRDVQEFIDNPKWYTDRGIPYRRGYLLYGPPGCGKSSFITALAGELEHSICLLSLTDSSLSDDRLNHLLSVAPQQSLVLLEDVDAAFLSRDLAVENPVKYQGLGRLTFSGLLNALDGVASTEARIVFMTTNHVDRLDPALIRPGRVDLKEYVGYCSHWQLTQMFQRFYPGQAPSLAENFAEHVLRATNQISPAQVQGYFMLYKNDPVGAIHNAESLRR

GBAS (human) = GBAS (human) (UniProt O75323)
Sequence of GBAS (human) (O75323 24-286 limits assumed): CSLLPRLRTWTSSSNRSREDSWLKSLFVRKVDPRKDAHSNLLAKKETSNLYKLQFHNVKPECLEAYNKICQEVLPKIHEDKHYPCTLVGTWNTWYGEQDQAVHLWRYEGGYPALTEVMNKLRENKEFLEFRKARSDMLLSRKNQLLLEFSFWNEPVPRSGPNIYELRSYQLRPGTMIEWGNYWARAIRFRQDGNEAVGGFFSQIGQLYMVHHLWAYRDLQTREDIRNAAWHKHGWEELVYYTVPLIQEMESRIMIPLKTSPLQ

ATPAF1 (human) = ATPAF1 (human) (UniProt Q5TC12)
Sequence of ATPAF1 (human) (Q5TC12 58-328 limits assumed): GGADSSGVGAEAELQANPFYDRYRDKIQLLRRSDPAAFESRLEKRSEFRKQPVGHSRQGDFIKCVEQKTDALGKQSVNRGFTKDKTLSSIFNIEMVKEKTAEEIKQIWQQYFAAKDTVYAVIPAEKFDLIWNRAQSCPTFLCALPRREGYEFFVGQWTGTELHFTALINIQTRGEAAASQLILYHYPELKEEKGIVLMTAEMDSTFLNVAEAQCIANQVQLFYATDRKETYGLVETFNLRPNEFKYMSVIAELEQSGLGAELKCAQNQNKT

NDUFAF4 (human) = NDUFAF4 (human) (UniProt Q9P032)
ACADVL (human) = ACADVL (human) (UniProt P49748)
MRPL12 (human) = MRPL12 (human) (UniProt P52815)
C7orf55 (human) = C7orf55 (human) (UniProt Q96HJ9)
VARS2 (human) = VARS2 (human) (UniProt Q5ST30)
MMAB (human) = MMAB (human) (UniProt Q96EY8)
Sequence of MMAB (human) (Q96EY8 33-250 limits assumed): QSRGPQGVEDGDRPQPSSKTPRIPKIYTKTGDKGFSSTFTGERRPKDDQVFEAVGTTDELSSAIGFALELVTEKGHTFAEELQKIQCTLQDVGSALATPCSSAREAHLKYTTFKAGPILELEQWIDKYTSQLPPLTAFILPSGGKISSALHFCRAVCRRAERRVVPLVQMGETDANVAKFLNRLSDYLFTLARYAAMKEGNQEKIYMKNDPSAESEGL

NDUFAF3 (human) = NDUFAF3 (human) (UniProt Q9BU61)
NDUFA2 (human) = NDUFA2 (human) (UniProt O43678)
TFAM (human) = TFAM (human) (UniProt Q00059)
Sequence of TFAM (human) (Q00059 43-246 limits assumed): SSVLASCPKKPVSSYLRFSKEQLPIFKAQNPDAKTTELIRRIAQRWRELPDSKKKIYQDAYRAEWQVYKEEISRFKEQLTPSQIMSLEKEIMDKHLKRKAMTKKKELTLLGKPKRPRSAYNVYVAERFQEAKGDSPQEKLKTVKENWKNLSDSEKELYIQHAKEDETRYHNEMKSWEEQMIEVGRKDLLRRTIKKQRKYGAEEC

IBA57 (human) = IBA57 (human) (UniProt Q5T440)
FOXRED1 (human) = FOXRED1 (human) (UniProt Q96CU9)
GCDH (human) = GCDH (human) (UniProt Q92947)
Sequence of GCDH (human) (Q92947 45-438 limits assumed): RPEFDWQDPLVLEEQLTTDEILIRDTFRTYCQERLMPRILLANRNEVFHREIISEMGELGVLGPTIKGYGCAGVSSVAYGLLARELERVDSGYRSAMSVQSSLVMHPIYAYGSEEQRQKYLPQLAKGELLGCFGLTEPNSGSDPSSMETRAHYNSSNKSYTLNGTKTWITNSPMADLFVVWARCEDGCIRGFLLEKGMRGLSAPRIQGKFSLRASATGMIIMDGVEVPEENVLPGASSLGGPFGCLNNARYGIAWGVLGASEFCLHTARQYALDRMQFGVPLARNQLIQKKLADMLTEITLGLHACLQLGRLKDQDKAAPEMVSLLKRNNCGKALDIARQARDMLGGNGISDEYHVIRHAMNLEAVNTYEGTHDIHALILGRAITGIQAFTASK

GLS (human) = GLS (human) (UniProt O94925)
Sequence of GLS (human) (O94925 55-669 limits assumed): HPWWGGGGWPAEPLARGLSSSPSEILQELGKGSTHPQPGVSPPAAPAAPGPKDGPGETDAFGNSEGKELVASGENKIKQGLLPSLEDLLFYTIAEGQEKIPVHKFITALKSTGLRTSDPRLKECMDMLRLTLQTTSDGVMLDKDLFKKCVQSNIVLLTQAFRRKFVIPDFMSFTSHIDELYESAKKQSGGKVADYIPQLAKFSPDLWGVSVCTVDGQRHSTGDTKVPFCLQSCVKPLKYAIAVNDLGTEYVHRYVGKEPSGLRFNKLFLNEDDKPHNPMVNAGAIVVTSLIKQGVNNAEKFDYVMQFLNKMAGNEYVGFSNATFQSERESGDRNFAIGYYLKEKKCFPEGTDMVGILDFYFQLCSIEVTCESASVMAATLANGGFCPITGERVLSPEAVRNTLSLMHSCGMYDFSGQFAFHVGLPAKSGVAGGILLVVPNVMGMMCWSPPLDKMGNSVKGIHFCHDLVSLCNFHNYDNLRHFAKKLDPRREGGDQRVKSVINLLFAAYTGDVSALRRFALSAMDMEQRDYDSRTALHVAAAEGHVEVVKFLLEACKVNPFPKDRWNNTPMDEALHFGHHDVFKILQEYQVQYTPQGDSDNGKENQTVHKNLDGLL

PDK3 (human) = PDK3 (human) (UniProt Q15120)
MRPL14 (human) = MRPL14 (human) (UniProt Q6P1L8)
MRPS17 (human) = MRPS17 (human) (UniProt Q9Y2R5)
ATPAF2 (human) = ATPAF2 (human) (UniProt Q8N5M1)
GRPEL1 (human) = GRPEL1 (human) (UniProt Q9HAV7)
THNSL1 (human) = THNSL1 (human) (UniProt Q8IYQ7)
Sequence of THNSL1 (human) (Q8IYQ7 whole entry): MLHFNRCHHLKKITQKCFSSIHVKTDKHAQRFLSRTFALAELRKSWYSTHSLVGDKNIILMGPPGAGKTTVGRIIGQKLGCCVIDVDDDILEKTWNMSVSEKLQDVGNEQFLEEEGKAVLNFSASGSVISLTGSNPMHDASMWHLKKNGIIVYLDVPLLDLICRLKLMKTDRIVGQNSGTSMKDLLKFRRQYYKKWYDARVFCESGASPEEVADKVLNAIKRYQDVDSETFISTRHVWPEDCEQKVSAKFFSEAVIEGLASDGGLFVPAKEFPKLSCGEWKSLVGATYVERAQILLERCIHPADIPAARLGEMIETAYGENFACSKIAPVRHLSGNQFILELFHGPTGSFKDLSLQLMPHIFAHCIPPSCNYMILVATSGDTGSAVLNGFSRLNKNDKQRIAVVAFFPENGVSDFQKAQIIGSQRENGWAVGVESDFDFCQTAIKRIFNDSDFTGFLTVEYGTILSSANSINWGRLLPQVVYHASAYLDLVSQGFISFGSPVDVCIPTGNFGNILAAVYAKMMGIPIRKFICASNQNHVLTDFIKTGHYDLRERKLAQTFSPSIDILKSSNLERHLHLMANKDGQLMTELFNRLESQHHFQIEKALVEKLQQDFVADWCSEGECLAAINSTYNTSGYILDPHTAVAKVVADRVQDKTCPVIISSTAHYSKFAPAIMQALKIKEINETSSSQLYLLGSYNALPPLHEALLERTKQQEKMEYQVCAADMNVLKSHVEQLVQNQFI

MRPL19 (human) = MRPL19 (human) (UniProt P49406)
SUPV3L1 (human) = SUPV3L1 (human) (UniProt Q8IYB8)
Sequence of SUPV3L1 (human) (Q8IYB8 23-786 limits assumed): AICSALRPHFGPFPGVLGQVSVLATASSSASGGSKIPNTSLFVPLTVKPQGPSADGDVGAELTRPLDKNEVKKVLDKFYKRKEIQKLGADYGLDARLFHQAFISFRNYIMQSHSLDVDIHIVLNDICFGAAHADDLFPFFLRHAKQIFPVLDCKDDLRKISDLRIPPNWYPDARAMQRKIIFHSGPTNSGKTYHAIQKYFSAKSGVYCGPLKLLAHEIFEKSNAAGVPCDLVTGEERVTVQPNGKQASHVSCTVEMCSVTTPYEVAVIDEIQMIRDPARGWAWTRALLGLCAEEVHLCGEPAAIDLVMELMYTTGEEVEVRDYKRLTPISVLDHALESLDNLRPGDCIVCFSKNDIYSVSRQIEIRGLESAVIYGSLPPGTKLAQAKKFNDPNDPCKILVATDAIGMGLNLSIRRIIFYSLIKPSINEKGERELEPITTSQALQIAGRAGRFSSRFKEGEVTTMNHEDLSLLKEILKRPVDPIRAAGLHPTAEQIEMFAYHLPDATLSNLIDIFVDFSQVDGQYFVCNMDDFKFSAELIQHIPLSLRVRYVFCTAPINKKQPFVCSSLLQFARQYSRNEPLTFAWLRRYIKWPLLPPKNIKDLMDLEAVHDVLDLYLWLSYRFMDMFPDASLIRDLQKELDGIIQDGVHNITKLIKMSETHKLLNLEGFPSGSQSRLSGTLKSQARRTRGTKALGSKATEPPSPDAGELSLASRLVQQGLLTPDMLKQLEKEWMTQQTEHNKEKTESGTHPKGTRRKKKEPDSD

EFHA1 (human) = EFHA1 (human) (UniProt Q8IYU8)
MTHFD1L (human) = MTHFD1L (human) (UniProt Q6UB35)

Sequence of CDK5RAP1 (human) (Q96SZ6 34-601 limits assumed): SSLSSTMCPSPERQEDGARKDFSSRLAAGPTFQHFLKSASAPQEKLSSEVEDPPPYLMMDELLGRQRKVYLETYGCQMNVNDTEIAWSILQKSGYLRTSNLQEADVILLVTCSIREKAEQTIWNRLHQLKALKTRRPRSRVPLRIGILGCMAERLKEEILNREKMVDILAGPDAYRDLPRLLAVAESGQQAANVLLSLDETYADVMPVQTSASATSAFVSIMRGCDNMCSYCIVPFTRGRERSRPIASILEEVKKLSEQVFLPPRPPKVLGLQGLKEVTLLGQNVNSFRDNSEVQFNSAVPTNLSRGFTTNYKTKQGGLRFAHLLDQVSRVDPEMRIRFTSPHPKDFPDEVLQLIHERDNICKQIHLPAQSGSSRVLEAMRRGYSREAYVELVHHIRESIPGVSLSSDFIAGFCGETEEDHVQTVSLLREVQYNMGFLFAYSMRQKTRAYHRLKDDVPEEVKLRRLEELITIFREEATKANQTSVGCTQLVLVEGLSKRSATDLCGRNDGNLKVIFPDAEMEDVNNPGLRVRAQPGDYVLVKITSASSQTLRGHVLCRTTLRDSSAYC

## FlagBirA-ClpP (WT) (from UniProt P06709 1-321; Q16740 57-277) (enzyme)
PAM16 (human)
  Log2 Fold change (vs control): -5.91 log2
NDUFV2 (human)
  Log2 Fold change (vs control): -5.96 log2
LARS2 (human)
  Log2 Fold change (vs control): -0.14 log2
CDK5RAP1 (human)
  Log2 Fold change (vs control): -4.17 log2
SLIRP (human)
  Log2 Fold change (vs control): -0.25 log2
IDI1 (human)
  Log2 Fold change (vs control): -0.22 log2
LETM1 (human)
  Log2 Fold change (vs control): -0.94 log2
MRPL55 (human)
  Log2 Fold change (vs control): -5.25 log2
MRPL45 (human)
  Log2 Fold change (vs control): -6.44 log2
WARS2 (human)
  Log2 Fold change (vs control): -1.27 log2
NDUFA12 (human)
  Log2 Fold change (vs control): -7.55 log2
MRPL47 (human)
  Log2 Fold change (vs control): -4.52 log2
ABCB10 (human)
  Log2 Fold change (vs control): -0.24 log2
NMNAT3 (human)
  Log2 Fold change (vs control): -4 log2
ZADH2 (human)
  Log2 Fold change (vs control): -3.46 log2
ARG2 (human)
  Log2 Fold change (vs control): -0.16 log2
PNPT1 (human)
  Log2 Fold change (vs control): 0.32 log2
MRPS26 (human)
  Log2 Fold change (vs control): -6.38 log2
MRM3 (human)
  Log2 Fold change (vs control): -1.62 log2
HSPE1 (human)
  Log2 Fold change (vs control): -0.36 log2
SHMT2 (human)
  Log2 Fold change (vs control): -0.51 log2
CLIC4 (human)
  Log2 Fold change (vs control): -0.49 log2
NDUFS6 (human)
  Log2 Fold change (vs control): -6.32 log2
XPNPEP3 (human)
  Log2 Fold change (vs control): -1.63 log2
CPOX (human)
  Log2 Fold change (vs control): -2.12 log2
BCS1L (human)
  Log2 Fold change (vs control): -0.17 log2
GBAS (human)
  Log2 Fold change (vs control): -2.79 log2
ATPAF1 (human)
  Log2 Fold change (vs control): -2.17 log2
NDUFAF4 (human)
  Log2 Fold change (vs control): -1.11 log2
ACADVL (human)
  Log2 Fold change (vs control): 0.55 log2
MRPL12 (human)
  Log2 Fold change (vs control): -3.32 log2
C7orf55 (human)
  Log2 Fold change (vs control): -1.18 log2
VARS2 (human)
  Log2 Fold change (vs control): -5.52 log2
MMAB (human)
  Log2 Fold change (vs control): -0.37 log2
NDUFAF3 (human)
  Log2 Fold change (vs control): -0.73 log2
NDUFA2 (human)
  Log2 Fold change (vs control): -6.32 log2
TFAM (human)
  Log2 Fold change (vs control): -1.61 log2
IBA57 (human)
  Log2 Fold change (vs control): -1.05 log2
FOXRED1 (human)
  Log2 Fold change (vs control): -4.09 log2
GCDH (human)
  Log2 Fold change (vs control): -0.17 log2
GLS (human)
  Log2 Fold change (vs control): -0.71 log2
PDK3 (human)
  Log2 Fold change (vs control): -1.55 log2
MRPL14 (human)
  Log2 Fold change (vs control): -3.46 log2
MRPS17 (human)
  Log2 Fold change (vs control): -4.25 log2
ATPAF2 (human)
  Log2 Fold change (vs control): -2.58 log2
GRPEL1 (human)
  Log2 Fold change (vs control): -5.52 log2
THNSL1 (human)
  Log2 Fold change (vs control): -1.55 log2
MRPL19 (human)
  Log2 Fold change (vs control): -3.51 log2
SUPV3L1 (human)
  Log2 Fold change (vs control): -0.12 log2
EFHA1 (human)
  Log2 Fold change (vs control): -0.47 log2
MTHFD1L (human)
  Log2 Fold change (vs control): -0.39 log2

— patent US20220143024A1, “METHODS OF USING IMIPRIDONES” (Board of Regents, The University of Texas System, priority 2019, published 2022)
